Results on 3 molecules are retold here after patent US20220064286A1 (Genentech, published 2022).

In general, IC50 refers to the concentration that gives 50% inhibition. What is called EC50 is the concentration needed to bring the measured effect to its halfway point.

The target in experiment [1] is T1, mu TIGIT (target named for 10A7 in the heads of Tables 6 and 7) (mu (mouse), UniProt P86176 29-249, limits assumed).
T1 construct: Only the column head says mu TIGIT; the text describes no mouse TIGIT cells
T1 sequence (looked up): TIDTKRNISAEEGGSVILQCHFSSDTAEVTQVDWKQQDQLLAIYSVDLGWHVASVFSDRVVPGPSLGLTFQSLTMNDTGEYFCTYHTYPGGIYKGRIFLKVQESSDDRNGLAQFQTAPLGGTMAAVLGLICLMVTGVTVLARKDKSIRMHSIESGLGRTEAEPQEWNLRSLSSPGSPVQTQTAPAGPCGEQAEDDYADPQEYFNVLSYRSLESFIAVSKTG
Put plainly: TR-FRET, TIGIT with ST-CD226 on CHO cells; competitor CD226.

Experiment [2] has as its target T1, mu TIGIT (target named for 10A7 in the …). Put plainly: FACS, CHO cells expressing TIGIT. In general terms: In flow cytometry, cells or beads pass a laser one at a time.
The target is the same in experiment [3]. Description: FACS, PVR-Fc on CHO-TIGIT cells; competitor PVR-Fc. As to the method:
These studies were further validated in CHO-TIGIT PVR blocking experiments in which TIGIT-expressing CHO cells were incubated with labeled PVR-Fc fusion protein in the presence of anti-TIGIT antibody or an human IgG1 control (FIG. 4A).

For experiment [4], the target named is T2, human TIGIT protein (human, UniProt Q495A1 22-141, limits assumed).
T2 construct: Recombinant protein (Genentech) used in ELISA screening and as SPR analyte; also called TIGIT antigen
T2 sequence: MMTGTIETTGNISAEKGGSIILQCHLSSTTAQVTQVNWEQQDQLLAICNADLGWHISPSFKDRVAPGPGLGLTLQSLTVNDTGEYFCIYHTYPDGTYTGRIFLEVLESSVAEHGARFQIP
Put plainly: SPR, bivalent affinity. Background: Surface plasmon resonance follows binding to a sensor surface in real time, without labels.

The target in experiment [5] is cynomolgus monkey (cyno) TIGIT protein (cynomolgus monkey, UniProt A0A7N9I9V4 89-209). Put plainly: SPR, bivalent affinity.
In experiment [6] the target is T3, cynomolgus TIGIT-AviFlag-biotin (cynomolgus monkey, UniProt A0A7N9I9V4 89-209, biotin).
T3 construct: also called cyno TIGIT-AviFlag-biotin
Description: Block ELISA Cyno PVR-Fc:Bio-TIGIT-AviFlag (blocked ligand cyno PVR-Fc). Here is the method: (§1) To test for the ability of the clones to block the TIGIT-PVR interaction, a blocking ELISA assay was used. Briefly, recombinant human PVR-Fc fusion protein, cynomolgus monkey PVR-Fc fusion protein, or mouse PVR-Fc fusion protein was coated at 4 μg/ml at 25 μl/well in phosphate-buffered saline (PBS, pH 7.0) onto 384-well Maxisorp microtiter plates (NUNC, Denmark) and incubated overnight at 4° C. The coating solution was then discarded and the plate was blocked using 0.5% bovine serum albumin (BSA) in PBS at 80 μl/well and incubated with gentle agitation for 1 hour. Titration curves of anti-TIGIT and Fab isotype control antibodies were diluted in assay buffer (PBS, 0.5% BSA, 0.05% Tween 20) using 12 serial 2.5-fold dilutions (40000-1.7 ng/mL). […] The plate was then washed 6× with wash buffer and bound human TIGIT-AviFlag-biotin, cyno TIGIT-AviFlag-biotin, or mouse TIGIT-His was detected by adding 25 μl/well of horseradish peroxidase-conjugated streptavidin (1:10000, Amersham, UK) or horseradish peroxidase-conjugated mouse anti-His (1:2500, Qiagen, Germany) diluted in assay buffer. […] Absorbance was read at 450 nm on a […] ASCENT® microtiter plate reader (Thermo Labsystems, Helsinki, Finland). Fit curves were plotted from the resulting optical density values from the ELISA plates and IC50s were calculated using Genedata Screener software (Genedata, Switzerland).
(In an ELISA, binding on a coated surface is turned into a signal by an enzyme label.)

For experiment [7], the target named is T4, mouse TIGIT-His (mouse, UniProt P86176 29-148, limits assumed).
T4 sequence (looked up): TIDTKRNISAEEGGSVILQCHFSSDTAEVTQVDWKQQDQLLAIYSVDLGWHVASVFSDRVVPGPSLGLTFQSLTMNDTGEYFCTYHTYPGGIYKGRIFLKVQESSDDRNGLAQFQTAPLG
Description: Block ELISA Mouse PVR-Fc:TIGIT-His (blocked ligand mouse PVR-Fc). As to the method:
as §1

The target of experiment [8] is T5, human TIGIT-AviFlag-biotin (human, UniProt Q495A1 22-141, biotin).
T5 sequence: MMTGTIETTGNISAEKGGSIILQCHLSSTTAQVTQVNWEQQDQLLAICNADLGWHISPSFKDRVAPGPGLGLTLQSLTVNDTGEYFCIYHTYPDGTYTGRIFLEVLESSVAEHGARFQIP
Description: Block ELISA Human PVR-Fc:Bio-TIGIT-AviFlag (blocked ligand human PVR-Fc). Here is the method:
as §1

Bounds are passed on as bounds.

cynomolgus monkey (cyno) TIGIT protein, sequence (A0A7N9I9V4 entry or part of it): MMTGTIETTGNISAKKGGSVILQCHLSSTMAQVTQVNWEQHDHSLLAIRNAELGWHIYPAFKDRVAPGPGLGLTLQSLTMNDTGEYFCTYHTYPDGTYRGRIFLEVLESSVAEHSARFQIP
T3 sequence (A0A7N9I9V4 entry or part of it): as above

B1: 10A7 (antibody, V domains shown)
VH: EVQLVESGGGLTQPGKSLKLSCEASGFTFSSFTMHWVRQSPGKGLEWVAFIRSGSGIVFYADAVRGRFTISRDNAKNLLFLQMNDLKSEDTAMYYCARRPLGHNTFDSWGQGTLVTVSS
VL: DIVMTQSPSSLAVSPGEKVTMTCKSSQSLYYSGVKENLLAWYQQKPGQSPKLLIYYASIRFTGVPDRFTGSGSGTDYTLTITSVQAEDMGQYFCQQGINNPLTFGDGTKLEIKR
Turning to B1, the half-maximal inhibitory concentration (IC50) turned out to be 17.6 nM in experiment [1] and 0.07 nM in experiment [3]. This molecule also registered a 50% effective concentration (EC50) in experiment [2] of 0.54 nM.

B2: 4.1D3 (antibody, V domains shown)
VH: QVQLQQSGPGLVKPSQTLSLTCAISGDSVSSNSAAWNWIRQSPSRGLEWLGKTYYRFKWYSDYAVSVKGRITINPDTSKNQFSLQLNSVTPEDTAVFYCTRESTTYDLLAGPFDYWGQGTLVTVSS
VL: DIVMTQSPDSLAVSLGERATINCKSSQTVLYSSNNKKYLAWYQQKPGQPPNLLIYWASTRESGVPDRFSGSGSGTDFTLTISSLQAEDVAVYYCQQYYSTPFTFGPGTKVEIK
notes: OMT rat-derived human antibody; also called 4.1D3.Q1
With B2, the Kd in experiment [4] was at most 0.019 nM; in experiment [5], 0.36 nM.

B3: 4.1D3.Q1E (antibody, V domains shown)
VH: EVQLQQSGPGLVKPSQTLSLTCAISGDSVSSNSAAWNWIRQSPSRGLEWLGKTYYRFKWYSDYAVSVKGRITINPDTSKNQFSLQLNSVTPEDTAVFYCTRESTTYDLLAGPFDYWGQGTLVTVSS
VL: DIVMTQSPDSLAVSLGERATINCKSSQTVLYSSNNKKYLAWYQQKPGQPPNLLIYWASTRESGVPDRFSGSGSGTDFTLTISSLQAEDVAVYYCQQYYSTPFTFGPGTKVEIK
Take B3: the half-inhibitory concentration (IC50) is 2.6 nM in experiment [6], over 133 nM in experiment [7] and 6.9 nM in experiment [8].
